Data taken from patent publication US20220289819A1 (GREEN CROSS, published 2022).
Values belong to the binder of their own block, whether it stands above or below them.

B3: hCEACAM1-Fc (Fc fusion)
chain: QLTTESMPFNVAEGKEVLLLVHNLPQQLFGYSWYKGERVDGNRQIVGYAIGTQQATPGPANSGRETIYPNASLLIQNVTQNDTGFYTLQVIKSDLVNEEATGQFHVYPELPKPSISSNNSNPVEDKDAVAFTCEPETQDTTYLWWINNQSLPVSPRLQLSNGNRTLTLLSVTRNDTGPYECEIQNPVSANRSDPVTLNVTYGPDTPTISPSDTYYRPGANLSLSCYAASNPPAQYSWLINGTFQQSTQELFIPNITVNNSGSYTCHANNSVTGCNRTTVKTIIVTELSPVVAKPQIKASKTTVTGDKDSVNLTCSTNDTGISIRWFFKNQSLPSSERMKLSQGNTTLSINPVKREDAGTYWCEVFNPISKNQSDPIMLNVNYNALPQENGLSPG
modifications: biotin-labeled when used as the soluble partner (sites not given)
notes: also called biotin-labeled hCEACAM1-Fc; not shown: pr

What was measured:
[1] = target: T1, hCEACAM1 (R&D Systems, Cat. No. 2244-CM) (human, UniProt P13688 35-428); assay: not stated at this place; presumably the BLI of Experimental Example 4; summary statement in the description, no assay named
T1 construct: Anti-His (His1K) biosensors were used, which implies a His tag
T1 sequence: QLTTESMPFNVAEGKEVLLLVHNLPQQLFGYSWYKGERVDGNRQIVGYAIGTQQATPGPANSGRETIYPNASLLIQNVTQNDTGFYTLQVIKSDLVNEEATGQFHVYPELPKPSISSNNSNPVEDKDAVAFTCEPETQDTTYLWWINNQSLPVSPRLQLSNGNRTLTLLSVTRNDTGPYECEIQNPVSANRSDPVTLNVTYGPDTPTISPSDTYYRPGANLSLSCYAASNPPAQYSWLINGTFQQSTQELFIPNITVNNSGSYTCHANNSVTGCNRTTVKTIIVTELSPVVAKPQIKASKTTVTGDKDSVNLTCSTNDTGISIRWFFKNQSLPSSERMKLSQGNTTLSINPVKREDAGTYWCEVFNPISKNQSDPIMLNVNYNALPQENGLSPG

hCEACAM1-Fc [2] = target: B3; assay: competition ELISA, hCEACAM6-Fc coated, antibody pre-mixed with biotin-labeled hCEACAM1-Fc; blocked interaction hCEACAM1-Fc/hCEACAM6-Fc
Protocol: (§1) In another 96-well-plate, the anti-CEACAM1 antibody was serially diluted 2-fold starting from a concentration of 60 μg/mL and added into 11 wells, and the last well was added with only PBS (to which 1% BSA was added), and then biotin-labeled hCEACAM 1-Fc was added in the same amount as the diluted anti-CEACAM1 antibody to a concentration of 0.5 μg/mL, and reacted at room temperature for 1 hour. After 1 hour, 100 μL each of a mixture of the anti-CEACAM1 antibody and the biotin-labeled hCEACAM1-Fc were added to the blocked plate and reacted again at room temperature for 1 hour.
(§2) After 1 hour, each well was washed 3 times by adding 300 μL of PBS (to which 0.05% Tween 20 was added) thereto, and then streptavidin-peroxidase polymer (Sigma, S2438-250UG) was diluted at a 1:5,000 ratio in PBS (to which 1% BSA was added), and 100 μL each of the resultant was added to each well, and reacted at 37° C. for 40 minutes. Each well where the reaction was completed was washed 3 by adding 300 μL of PBS (to which 0.05% Tween 20 was added) thereto, and then 100 μL each of TMB microwell peroxidase substrate (KPL, 50-76-03) was added thereto, and reacted for 5 minutes. To terminate the reaction, an equal amount of sulfuric acid (Sigma-Aldrich, 339741) was added and the OD value was measured at 450 nm wavelength using an ELISA reader.

hCEACAM1-Fc [3] = target: B3; assay: competition ELISA: antibody titrated from 60 µg/mL, mixed with biotin-labeled hCEACAM1-Fc, added to coated hCEACAM1-Fc
Protocol: (§3) In another 96-well-plate, anti-CEACAM1 antibody was serially diluted 2-fold starting from a concentration of 60 μg/ml, and added into 11 wells, and the last well was added only with PBS to which 1% BSA was added, and then biotin-labeled hCEACAM1-Fc was added in the same amount as the anti-CEACAM1 antibody (which was diluted to 0.5 μg/mL), and reacted at room temperature for 1 hour. After 1 hour, 100 μL each of a mixture of the anti-CEACAM1 antibody and the biotin-labeled hCEACAM1-Fc were added to the blocked plate and reacted again at room temperature for 1 hour.
(§4) After 1 hour, each well was washed 3 times by adding 300 μL of PBS (to which 0.05% Tween 20 was added) thereto, and then streptavidin-peroxidase polymer (Sigma, S2438-250UG) was diluted at a 1:5,000 ratio in PBS (to which 1% BSA was added), 100 μL each of the resultant was added to each well, and reacted at 37° C. for 40 minutes. Each well where the reaction was completed was washed 3 times by adding 300 μL of PBS (to which 0.05% Tween 20 was added), and then 100 μL of TMB microwell peroxidase substrate (KPL, 50-76-03) was added thereto and reacted for 5 minutes. To terminate the reaction, an equal amount of sulfuric acid (Sigma-Aldrich, 339741) was added and the OD value was measured at 450 nm wavelength using an ELISA reader.

hCEACAM1-Fc [4] = target: B3; assay: competition ELISA, hCEACAM1-Fc coated, antibody pre-mixed with hCCM1-Fc-biotin 500 ng/mL; blocked interaction hCEACAM1-Fc/hCEACAM1-Fc
Protocol: as §3, §4

hCEACAM1-Fc [5] = target: B3; assay: competition ELISA: antibody titrated from 60 µg/mL, mixed with biotin-labeled hCEACAM1-Fc, added to coated hCEACAM6-Fc
Protocol: as §1, §2

[6] = target: T1, hCEACAM1 (R&D Systems, Cat. No. 2244-CM); assay: BLI (Octet QKe), hCEACAM1 on anti-His biosensor, antibody 6.25-400 nM in solution
Protocol: Quantitative binding strength of the anti-CEACAM1 antibody to CEACAM1 was measured using the Octet QKe (Pall ForteBio). The anti-CEACAM1 antibody was subjected to a ½ concentration dilution 6 times at a concentration of 400 nM, and the antibodies at concentrations of 400 nM, 200 nM, 100 nM, 50 nM, 25 nM, 12.5 nM, and 6.25 nM were added into a Greiner 96-well-plate (Greiner, Cat. No. 655209) in an amount of 200 μL each in a row, and the last well was added at a concentration of 0 nM. In another row, hCEACAM1 (R&D Systems, Cat. No. 2244-CM) was diluted to a concentration of […], and was added in an amount of 200 μL each in a row.
Washing buffer, neutralization buffer, and baseline buffer were diluted 10 times with Reagent/Kinetics buffer (10×) (Fortebio, Cat. No. 18-1092) and was added in an amount of 200 μL in each row, and regeneration buffer was added in an amount of 200 μL in a row. A separate Greiner 96-well-plate was prepared, and Reagent/Kinetics buffer (IX) was added in an amount of 200 μL to as many wells as the number of biosensors to be used, and the Biosensors/Anti-His(His1K) (Fortebio, Cat. No. 18)-5120) Cassette was mounted.

[7] = target: T2, hCEACAM6-Fc (human), P40199; assay: ELISA, hCEACAM6-Fc coated, biotin-labeled hCEACAM1-Fc titrated, streptavidin-peroxidase detection; conditions: remark: other sources report otherwise
T2 chain: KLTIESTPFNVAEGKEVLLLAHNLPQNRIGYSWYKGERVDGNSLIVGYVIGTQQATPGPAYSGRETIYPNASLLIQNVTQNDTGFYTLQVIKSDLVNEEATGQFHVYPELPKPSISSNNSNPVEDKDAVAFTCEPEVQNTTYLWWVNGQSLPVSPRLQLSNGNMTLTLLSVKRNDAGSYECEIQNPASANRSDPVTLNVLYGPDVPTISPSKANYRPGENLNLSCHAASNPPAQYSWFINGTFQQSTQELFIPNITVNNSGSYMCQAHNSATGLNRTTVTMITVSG

[8] = target: T2, hCEACAM6-Fc (human), P40199; assay: ELISA, coated hCEACAM6-Fc (2.5 µg/mL), biotin-labeled hCEACAM1-Fc titrated from 150 µg/mL; conditions: remark: other sources report otherwise
[9] = target: the molecule itself; assay: ELISA, coated hCEACAM1-Fc (2.5 µg/mL), biotin-labeled hCEACAM1-Fc titrated from 150 µg/mL
Protocol: (§5) The hCEACAM1-Fc prepared in Example 5.1 was diluted with PBS to a concentration of 2.5 μg/mL, and then 100 μL each of the resultant was added into a NUNC immuno module (NUNC, 468667) plate and coated at 4° C. overnight. On the next day, after washing with PBS (to which 0.05% Tween 20 was added), 300 μL of PBS (to which 1% BSA was added) was added to each well of the coated plate, and blocking was performed by reacting at room temperature for 2 hours. In addition, after washing 3 times with PBS (to which 0.05% Tween 20 was added), biotin-labeled hCEACAM1-Fc was serially diluted 3-fold starting from a concentration of 150 μg/mL, and added into 11 wells in the plate coated with hCEACAM1-Fc. The last well was added only with PBS to which 1% BSA was added. The wells were reacted at 37° C. for 1 hour. After 1 hour, each well was washed 3 times by adding 300 μL of PBS (to which 0.05% Tween 20 was added), and then streptavidin-peroxidase polymer (Sigma, S2438-250UG) was diluted at a 1:5,000 ratio in PBS (to which 1% BSA was added), 100 μL each of the resultant was added into each well, and reacted at 37° C. for 40 minutes. […] To terminate the reaction, an equal amount of sulfuric acid (Sigma-Aldrich, 339741) was added and the OD value was measured at 450 nm wavelength using an ELISA reader.

[10] = target: the molecule itself; assay: ELISA, hCEACAM1-Fc coated, biotin-labeled hCEACAM1-Fc titrated, streptavidin-peroxidase detection
Protocol: as §5

Kd [1]: 3.36 nM | IC50 (read off the curve) (hCEACAM1-Fc [2]): ~1 µg/mL | IC50 (hCEACAM1-Fc [3]): 1.05 µg/mL | IC50 (read off the curve) (hCEACAM1-Fc [4]): ~0.8 µg/mL | IC50 (hCEACAM1-Fc [5]): 0.795 µg/mL | Kd [6]: 3.39 nM | koff [6]: 0.000567 s⁻¹ | kon [6]: 163000 M⁻¹ s⁻¹
B1: anti-CEACAM1 antibody (antibody, V domains shown)
VH: EVQLLESGGGLVQPGGSLRLSCAASGFTFSNYAMSWVRQAPGKGLEWVSVISHGGGSIYYADSVKGRLTISRDNSKNTLYLQMNSLRAEDTAVYYCARDPTKGYAPTFDYWGQGTLVTVSS
VL: QSVLTQPPSASGTPGQRVTISCSGSSSNIGNNYVSWYQQLPGTAPKLLIYADSRRPSGVPDRFSGSKSGTSASLAISGLRSEDEADYYCGAWDLSLNGYVFGGGTKLTVLG
notes: also called anti-CEACAM1 antibody according to an embodiment

EC50 (read off the curve) [7]: 0.3 µg/mL | EC50 [8]: 0.305 µg/mL
B2: hCEACAM1-Fc, P13688 35-428 (Fc fusion, not shown: a dimerising Fc or GST)
chain: QLTTESMPFNVAEGKEVLLLVHNLPQQLFGYSWYKGERVDGNRQIVGYAIGTQQATPGPANSGRETIYPNASLLIQNVTQNDTGFYTLQVIKSDLVNEEATGQFHVYPELPKPSISSNNSNPVEDKDAVAFTCEPETQDTTYLWWINNQSLPVSPRLQLSNGNRTLTLLSVTRNDTGPYECEIQNPVSANRSDPVTLNVTYGPDTPTISPSDTYYRPGANLSLSCYAASNPPAQYSWLINGTFQQSTQELFIPNITVNNSGSYTCHANNSVTGCNRTTVKTIIVTELSPVVAKPQIKASKTTVTGDKDSVNLTCSTNDTGISIRWFFKNQSLPSSERMKLSQGNTTLSINPVKREDAGTYWCEVFNPISKNQSDPIMLNVNYNALPQENGLSPG
modifications: here or on the partner: biotin-labeled when used as the soluble partner (sites not given)

Binder: B3
EC50 [9]: 0.286 µg/mL | EC50 (read off the curve) [10]: ~0.3 µg/mL
